Test [1] addresses T1, Tim-3-his (human, UniProt Q8TDQ0 22-202, limits assumed).
T1 construct: not shown: his tag
As to the kind of experiment: SPR (BIAcore T-200), antibody captured by anti-human Fab, Tim-3-his flowed. For orientation: SPR reads the build-up and loss of mass on a sensor chip optically.

For test [2], the target named is T2, Tim-3 (form used in the assay not stated) (human, UniProt Q8TDQ0 22-202, limits assumed). Description: SPR, Fab, Test 2.
Test [3] has as its target T2, Tim-3 (form used in the assay not …). Description: SPR, Fab, mean of Test 1 and Test 2.
Test [4] shares this target. As to the kind of experiment: SPR, Fab, Test 1.
Test [5] has as its target T1, Tim-3-his. As to the kind of experiment: BLI (ForteBio Octet), antibody captured on protein A tips, dipped in Tim-3-his solution.
Another test addresses Tim-3-mIgG2a (human; mouse, UniProt Q8TDQ0 22-202). Description: ELISA on Tim-3-mIg, absorbance at OD450nm against antibody concentration.
For test [6], the target named is T2, Tim-3 (form used in the assay not …). As to the kind of experiment: ELISA on Tim-3, absorbance at OD450nm against antibody concentration.
The target in test [7] is T3, Human Fc-tagged Tim-3 IgV domain (human, UniProt Q8TDQ0 22-130, limits assumed).
T3 construct: not shown: human Fc tag
T3 sequence: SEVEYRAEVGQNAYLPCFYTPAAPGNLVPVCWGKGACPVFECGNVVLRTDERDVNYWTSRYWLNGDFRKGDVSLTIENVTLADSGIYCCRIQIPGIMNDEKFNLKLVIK
Description: SPR (BIAcore T-200), Fc-tagged Tim-3 IgV domain captured by anti-human IgG, antibody flowed.

B1: Ab2 in human IgG4 format with S228P mutation (antibody, V domains shown)
VH: EVQLLESGGGLVQPGGSLRLSCAAASGFTFSSYDMSWVRQAPGKGLDWVSTISGGGTYTYYQDSVKGRFTISRDNSKNTLYLQMNSLRAEDTAVYYCASMDYWGQGTTVTVSS
VL: DIQMTQSPSSLSASVGDRVTITCRASQSIRRYLNWYHQKPGKAPKLLIYGASTLQSGVPSRFSGSGSGTDFTLTISSLQPEDFAVYYCQQSHSAPLTFGGGTKVEIKR
notes: Known Tim-3 antibody, generated in human IgG4 format with S228P mutation
With B1, in the test with Tim-3-his [1], the Kd (commonly the free concentration of one partner at which half of the binding sites on the other are occupied at equilibrium, for simple one-to-one binding) came out at 19.4 nM; the koff (in general, the first-order rate constant of dissociation) turned out to be 0.0122 s⁻¹; the kon (in general, the rate constant with which the complex forms) turned out to be 627000 M⁻¹ s⁻¹.

B2: hu425-2-2 Fab (Fab, V domains shown)
VH: EVQLVESGGGLVQPGGSLRLSCAASGFTFSRYAMSWVRQAPGKGLEWVAAISSGGSLYYPDSVKGRFTISRDNAKNTLYLQMNSLRAEDTAVYYCARGREADGGYFDYWGQGTLVTVSS
VL: EIVMTQSPATLSVSPGERATLSCRASESVEYYGTSLMQWYQQKPGQAPRLLIYAASNVESGIPARFSGSGSGTEFTLTISSLQSEDFAVYYCQQSLKVPLTFGGGTKVEIK
notes: Fab prepared from the mAb with the Pierce Fab Preparation Kit; Only the variable domains are tied to the name. hu425s were engineered in the human IgG1 format
In test [2], B2 gave a Kd of 0.404 nM, a koff of 0.000795 s⁻¹ and a kon of 1.97e+06 M⁻¹ s⁻¹. The molecule also came in with a Kd in test [3] of 0.419 nM. In test [4], this molecule returned a dissociation constant Kd of 0.434 nM, a koff of 0.00074 s⁻¹ and a kon of 1.71e+06 M⁻¹ s⁻¹.

B3: Hu425-2-3b in human IgG4 format with S228P mutation (antibody, V domains shown)
VH: EVQLVESGGGLVQPGGSLRLSCAASGFTFSRYAMSWVRQAPGKGLEWVAAISSGGSLYYPDSVKGRFTISRDNAKNTLYLQMNSLRAEDTAVYYCARGREADGGYFDYWGQGTLVTVSS
VL: EIVLTQSPATLSVSPGERATLSCRASESVEYYGTSLMQWYQQKPGQAPRLLIYAASNVESGIPARFSGSGSGTEFTLTISSLQSEDFAVYYCQQSLKVPLTFGGGTKVEIK
In the test with Tim-3-his [1], B3 yielded a Kd of 1.47 nM, a koff of 0.000778 s⁻¹ and a kon of 528000 M⁻¹ s⁻¹.

B4: hybrid antibody 425 HC/Ab1 LC (antibody, V domains shown)
VH: EVQLVESGGGLVQPGGSLRLSCAASGFTFSRYAMSWVRQAPGKGLEWVAAISSGGSLYYPDSVKGRFTISRDNAKNTLYLQMNSLRAEDTAVYYCARGREADGGYFDYWGQGTLVTVSS
VL: AIQLTQSPSSLSASVGDRVTITCRASESVEYYGTSLMQWYQQKPGKAPKLLIYAASNVESGVPSRFSGSGSGTDFTLTISSLQPEDFATYFCQQSRKDPSTFGGGTKVEIK
For B4, in the test with Tim-3-his [5], the binding result was “no binding”.

B5: hu425-1-1 Fab (Fab, V domains shown)
VH: EVQLVESGGGLVQPGGSLRLSCAASGFTFSRYAMSWVRQAPGKGLEWVAAISSGGSLYFPDSVKGRFTISRDNAKNSCYLQMNSLRAEDTAVYYCARGREADGGYFDYWGQGTLVTVSS
VL: DIVLTQSPATLSVSPGERATLSCRASESVEYYGTSLMQWYQQKPGQAPRLLIYAASNVESGVPARFSGSGSGTDFTLTISSLQSEDFAVYYCQQSMKVPLTFGGGTKVEIKR
notes: Fab prepared from the mAb with the Pierce Fab Preparation Kit
With B5, in test [2], the Kd amounted to 0.346 nM, the koff came out at 0.000435 s⁻¹ and the kon is 1.26e+06 M⁻¹ s⁻¹. Also, in test [3], the Kd was determined as 0.253 nM. In test [4], binding was characterised by a dissociation constant (Kd) of 0.159 nM, the koff worked out at 0.000108 s⁻¹ and the kon was determined as 679000 M⁻¹ s⁻¹.

B6: hu425-2-3b Fab (Fab, V domains shown)
VH: EVQLVESGGGLVQPGGSLRLSCAASGFTFSRYAMSWVRQAPGKGLEWVAAISSGGSLYYPDSVKGRFTISRDNAKNTLYLQMNSLRAEDTAVYYCARGREADGGYFDYWGQGTLVTVSS
VL: EIVLTQSPATLSVSPGERATLSCRASESVEYYGTSLMQWYQQKPGQAPRLLIYAASNVESGIPARFSGSGSGTEFTLTISSLQSEDFAVYYCQQSLKVPLTFGGGTKVEIK
notes: Fab prepared from the mAb with the Pierce Fab Preparation Kit; Only the variable domains are tied to the name
For B6, the dissociation constant Kd in test [2] was found to be 0.366 nM; in test [3] it was 0.361 nM; in test [4], 0.356 nM. The koff is 0.00064 s⁻¹ in test [2] and 0.00057 s⁻¹ in test [4]. Besides, the values for the on-rate constant (kon) in test [2] and in test [4] were 1.75e+06 M⁻¹ s⁻¹ and 1.6e+06 M⁻¹ s⁻¹, respectively.

B7: hu425-2-3b (antibody, V domains shown)
VH: EVQLVESGGGLVQPGGSLRLSCAASGFTFSRYAMSWVRQAPGKGLEWVAAISSGGSLYYPDSVKGRFTISRDNAKNTLYLQMNSLRAEDTAVYYCARGREADGGYFDYWGQGTLVTVSS
VL: EIVLTQSPATLSVSPGERATLSCRASESVEYYGTSLMQWYQQKPGQAPRLLIYAASNVESGIPARFSGSGSGTEFTLTISSLQSEDFAVYYCQQSLKVPLTFGGGTKVEIK
notes: Full chains are not tied to the name
As for B7, in the test with Tim-3-mIgG2a, the EC50 (read off the curve) (as a rule, the concentration needed to bring the measured effect to its halfway point) is about 0.01 mg/L.

B8: hu425-2F-1 (antibody, human IgG1, kappa, V domains shown)
VH: EVQLVESGGGLVQPGGSLRLSCAASGFTFSRYAMSWVRQAPGKGLEWVAAISSGGSLYFPDSVKGRFTISRDNAKNSCYLQMNSLRAEDTAVYYCARGREADAGYFDYWGQGTLVTVSS
VL: DIVLTQSPATLSVSPGERATLSCRASESVEYYGTSLMQWYQQKPGQAPRLLIYAASNVESGVPARFSGSGSGTDFTLTISSLQSEDFAVYYCQQSMKVPLTFGGGTKVEIKR
notes: Single amino acid mutation from hu425-1-1; also called G103A
For the molecule B8, in test [6], the binding result is recorded as “no binding”.

B9: Ab1 in human IgG4 format with S228P mutation (antibody, V domains shown)
VH: QVQLVQSGAEVKKPGSSVKVSCKASGYTFTSYNMHWVRQAPGQGLEWMGDIYPGNGDTSYNQKFKGRVTITADKSTSTVYMELSSLRSEDTAVYYCARVGGAFPMDYWGQGTTVTVSS
VL: AIQLTQSPSSLSASVGDRVTITCRASESVEYYGTSLMQWYQQKPGKAPKLLIYAASNVESGVPSRFSGSGSGTDFTLTISSLQPEDFATYFCQQSRKDPSTFGGGTKVEIK
notes: as for B1
In the case of B9, in the test with Tim-3-his [1], the Kd was 0.271 nM, the off-rate constant (koff) amounted to 0.00012 s⁻¹ and the kon was determined as 444000 M⁻¹ s⁻¹.

B10: mu425 (antibody, V domains shown)
VH: EVKLVESGGGLVKPGGSLKLSCAASGFTFSRYAMSWVRQIPEKRLEWVAAISSGGSLYFPDSVKGRFTISRDNARNICYLQMNSLRSDDTAMYYCARGREADGGYFDYWGQGTTLTVSS
VL: DIVLTQSPASLAVSLGQRATISCRASESVEYYGTSLMQWYQQKPGQPPKLLIYAASNVESGVPARFSGSGSGTDFSLNIHPVEEDDIAMYFCQQSMKVPLTFGAGTKLELK
notes: Murine hybridoma mAb, purified
Regarding B10, in test [7], the Kd was 0.058 nM, the koff is 9.33e-05 s⁻¹ and the kon stood at 1.59e+06 M⁻¹ s⁻¹.

B11: ch425 Fab (Fab, V domains shown)
VH: EVKLVESGGGLVKPGGSLKLSCAASGFTFSRYAMSWVRQIPEKRLEWVAAISSGGSLYFPDSVKGRFTISRDNARNICYLQMNSLRSDDTAMYYCARGREADGGYFDYWGQGTTLTVSS
VL: DIVLTQSPASLAVSLGQRATISCRASESVEYYGTSLMQWYQQKPGQPPKLLIYAASNVESGVPARFSGSGSGTDFSLNIHPVEEDDIAMYFCQQSMKVPLTFGAGTKLELKR
notes: as for B5
Consider B11, for which, in test [4], the affinity, expressed as Kd, was 0.122 nM; the koff is 0.000204 s⁻¹; the kon was found to be 1.67e+06 M⁻¹ s⁻¹.

(Values after patent publication US20240076375A1 (BEIGENE, published 2024).)
